Test [1] concerns the target MalFGK2, P02916. Briefly: BN-PAGE of MalFGK2-NSPr after 1 hr of incubation at 30 °C.
The target of test [2] is MalFGK2, P02916. Kind of test: BN-PAGE of MalFGK2-NSPr after 2 hr of incubation at 30 °C.
The target in test [3] is MalFGK2, P02916. Briefly: in-gel reconstitution, CN-PAGE titration of NSPr, Boltzmann fit.
Test [4] has as its target T1, trimeric OmpF porin (E. coli), P02931.
T1 chain: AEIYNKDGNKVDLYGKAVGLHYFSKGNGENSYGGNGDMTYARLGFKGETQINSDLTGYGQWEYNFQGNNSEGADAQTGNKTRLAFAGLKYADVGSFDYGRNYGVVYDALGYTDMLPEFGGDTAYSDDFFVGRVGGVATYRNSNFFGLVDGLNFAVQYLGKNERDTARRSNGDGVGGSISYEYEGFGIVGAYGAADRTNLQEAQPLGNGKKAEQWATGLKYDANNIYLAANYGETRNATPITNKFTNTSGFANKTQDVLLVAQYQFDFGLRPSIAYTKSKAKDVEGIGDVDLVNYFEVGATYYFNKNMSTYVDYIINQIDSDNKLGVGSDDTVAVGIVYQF
Described as above.

Test [5] has as its target T2, FhuA (E. coli), P06971.
T2 chain: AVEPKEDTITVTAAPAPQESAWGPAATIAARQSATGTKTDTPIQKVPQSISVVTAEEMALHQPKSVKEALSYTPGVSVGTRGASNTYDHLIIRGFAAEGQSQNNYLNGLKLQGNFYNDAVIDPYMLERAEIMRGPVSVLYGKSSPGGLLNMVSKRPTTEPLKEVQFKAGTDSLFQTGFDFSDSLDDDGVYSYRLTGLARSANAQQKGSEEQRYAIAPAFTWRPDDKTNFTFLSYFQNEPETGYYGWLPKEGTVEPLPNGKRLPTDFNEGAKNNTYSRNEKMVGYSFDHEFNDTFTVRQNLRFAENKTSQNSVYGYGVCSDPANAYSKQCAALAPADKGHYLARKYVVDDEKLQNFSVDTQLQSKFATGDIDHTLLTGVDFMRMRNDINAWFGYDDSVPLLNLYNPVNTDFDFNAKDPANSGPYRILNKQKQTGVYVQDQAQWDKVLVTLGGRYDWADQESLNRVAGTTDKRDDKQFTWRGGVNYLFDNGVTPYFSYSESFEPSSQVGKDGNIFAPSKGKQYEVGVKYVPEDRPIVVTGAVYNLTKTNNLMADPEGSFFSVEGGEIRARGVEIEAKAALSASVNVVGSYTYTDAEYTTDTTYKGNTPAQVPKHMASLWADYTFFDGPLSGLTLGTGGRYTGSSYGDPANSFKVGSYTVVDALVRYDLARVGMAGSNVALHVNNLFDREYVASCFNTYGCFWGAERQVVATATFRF
The description is as above.

In the next test the target is T3, SecYEG complex, P0AGA2.
T3 chain 1: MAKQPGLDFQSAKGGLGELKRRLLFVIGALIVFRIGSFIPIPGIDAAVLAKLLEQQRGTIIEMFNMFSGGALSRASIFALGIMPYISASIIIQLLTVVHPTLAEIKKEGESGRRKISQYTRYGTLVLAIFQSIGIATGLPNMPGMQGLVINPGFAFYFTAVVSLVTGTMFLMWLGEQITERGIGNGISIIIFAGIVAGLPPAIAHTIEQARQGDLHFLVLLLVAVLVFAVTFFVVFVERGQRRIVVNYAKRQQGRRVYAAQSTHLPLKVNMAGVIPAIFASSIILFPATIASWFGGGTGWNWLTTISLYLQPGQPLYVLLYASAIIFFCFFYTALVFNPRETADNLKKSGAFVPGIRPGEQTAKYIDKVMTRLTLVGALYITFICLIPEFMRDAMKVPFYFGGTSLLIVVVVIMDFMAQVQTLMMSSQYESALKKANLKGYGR
T3 chain 2: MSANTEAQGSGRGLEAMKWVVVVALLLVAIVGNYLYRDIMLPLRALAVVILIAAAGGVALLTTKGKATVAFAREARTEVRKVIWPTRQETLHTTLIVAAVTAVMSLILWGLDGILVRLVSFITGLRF
T3 chain 3: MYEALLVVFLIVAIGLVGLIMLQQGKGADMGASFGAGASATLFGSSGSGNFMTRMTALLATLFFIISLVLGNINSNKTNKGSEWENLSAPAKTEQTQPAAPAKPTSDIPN
The description is as above.

Test [6] addresses MalFGK2, P02916. Kind of test: BN-PAGE of MalFGK2-NSPr after 3 hr of incubation at 30 °C.
For test [7], the target named is MalFGK2, P02916. Briefly: BN-PAGE of MalFGK2-NSPr, time 0 hr of incubation at 30 °C.
The target in test [8] is MalFGK2, P02916. Briefly: SDS-PAGE densitometry of purified peptidisc against an NSPr standard curve.
Test [9] concerns the target photosynthetic bacterial reaction center (BRC) from Rhodobacter sphaeroides (Rhodobacter sphaeroides), P0C0Y9. Described as above.
Test [10] concerns the target T2, FhuA (E. coli), P06971. Kind of test: density of the FhuA band of FIG. 19B plotted against log(mol NSPr/mol FhuA); half-maximal reconstitution ratio RR50.
Test [11] concerns the target T2, FhuA (E. coli), P06971. Briefly: western blot with streptavidin-Alexa 680 of peptidisc made with NSPrbio, against a standard curve.
The target of a further test is membrane proteins. Kind of test: on-gel reconstitution, competitor equimolar NSPr-FAM; 0 no, 100 full competition.

No end group written: not given here.

Sequence of MalFGK2, P02916 (P02916 whole entry, chain 1 of 3): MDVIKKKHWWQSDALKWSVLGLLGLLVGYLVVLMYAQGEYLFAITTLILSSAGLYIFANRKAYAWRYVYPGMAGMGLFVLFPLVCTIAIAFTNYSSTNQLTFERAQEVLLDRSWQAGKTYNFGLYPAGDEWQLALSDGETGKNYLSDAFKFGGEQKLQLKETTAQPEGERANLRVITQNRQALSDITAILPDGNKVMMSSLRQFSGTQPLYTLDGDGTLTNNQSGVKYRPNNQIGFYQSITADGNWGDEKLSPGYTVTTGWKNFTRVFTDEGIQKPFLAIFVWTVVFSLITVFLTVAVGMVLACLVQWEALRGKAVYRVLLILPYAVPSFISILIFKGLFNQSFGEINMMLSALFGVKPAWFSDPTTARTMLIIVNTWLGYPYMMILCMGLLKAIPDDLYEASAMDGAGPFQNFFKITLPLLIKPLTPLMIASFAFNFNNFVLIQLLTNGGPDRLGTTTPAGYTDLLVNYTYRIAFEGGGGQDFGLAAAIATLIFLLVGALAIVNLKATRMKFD
Sequence of MalFGK2, P02916 (P68183 whole entry, chain 2 of 3, further chain): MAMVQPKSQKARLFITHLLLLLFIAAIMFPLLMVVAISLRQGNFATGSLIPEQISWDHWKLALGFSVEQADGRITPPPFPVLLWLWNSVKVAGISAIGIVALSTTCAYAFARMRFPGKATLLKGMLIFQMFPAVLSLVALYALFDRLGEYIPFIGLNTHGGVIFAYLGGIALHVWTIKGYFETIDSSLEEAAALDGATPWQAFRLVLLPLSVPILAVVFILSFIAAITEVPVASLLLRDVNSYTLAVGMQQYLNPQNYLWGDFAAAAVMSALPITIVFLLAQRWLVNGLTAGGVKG
Sequence of MalFGK2, P02916 (P68187 whole entry, chain 3 of 3, further chain): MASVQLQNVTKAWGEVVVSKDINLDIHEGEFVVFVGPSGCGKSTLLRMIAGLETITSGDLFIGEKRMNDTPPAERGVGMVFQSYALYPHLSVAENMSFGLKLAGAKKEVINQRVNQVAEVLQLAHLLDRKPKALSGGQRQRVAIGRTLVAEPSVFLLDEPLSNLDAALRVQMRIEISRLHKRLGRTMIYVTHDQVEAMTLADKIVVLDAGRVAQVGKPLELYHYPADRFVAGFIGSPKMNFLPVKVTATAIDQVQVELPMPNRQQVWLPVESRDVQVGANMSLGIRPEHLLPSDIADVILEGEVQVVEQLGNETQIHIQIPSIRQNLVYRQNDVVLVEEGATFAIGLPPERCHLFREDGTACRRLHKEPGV

B1: NSPr (peptide)
peptide: FAEKFKEAVKDYFAKFWDPAAEKLKEAVKDYFAKLWD
modifications: not checked
As for B1, the (%) of the MalFGK2 Peptidisc band is 89% with MalFGK2, P02916 [1]; 86% with MalFGK2, P02916 [2]; 84% with MalFGK2, P02916 [6]; 100% in the test with MalFGK2, P02916 [7]. In addition, the RR50 (half-maximal reconstitution molar ratio) (mol NSPr/mol protein) in the test with MalFGK2, P02916 [3] stood at 20; in test [4] it was 20; in the test with FhuA (E. coli), P06971 [5], 20; in the test with SecYEG complex, P0AGA2, 20. The Measured NSPr stoichiometry (NSPr/disc) in the test with MalFGK2, P02916 [8] amounted to 10 NSPr/disc; in test [9] it was 9 NSPr/disc. Moreover, the EC50 (read off the curve) (mol NSPr/mol FhuA) with FhuA (E. coli), P06971 [10] was 20.

B2: NSPr-biotin (peptide)
peptide: B1 peptide
modifications: not fully specified (N-terminus)
For B2, the Measured NSPr stoichiometry (NSPr/disc) with FhuA (E. coli), P06971 [11] came to 10 NSPr/disc.

B3: Ac-NSP-NH2 (peptide)
peptide: DWLKAFYDKVAEKLKEAAPDWFKAFYDKVAEKFKEAF
modifications: not fully specified (N-terminus, C-terminus)
In the test with membrane proteins, B3 registered a Competition peptide (% NSPr-FAM) of 10%.

Source of the values: patent US20210253643A1, “HYDROPHOBIC BIOMOLECULE STABILIZING SCAFFOLD PEPTIDES AND METHODS OF MAKING AND USING SAME” (The University of British Columbia, priority 2018, published 2021).
